US20100092465A1, “TREATMENT OF GRAFT-VERSUS-HOST DISEASE” (priority 2006, published 2010)
Where “and” joins values, the source holds several entries; their conditions need not be identical. Identical values can stand only once.

Experiments:
[1] = target: T1, muIL-27 (Mus musculus, UniProt O35228+Q8K3I6); assay: Phospho-STAT3 neutralization assay, total human PBMCs, muIL-27; assay type: cell-based; conditions: ligand muIL-27 at EC90
T1 sequence (O35228 19-228): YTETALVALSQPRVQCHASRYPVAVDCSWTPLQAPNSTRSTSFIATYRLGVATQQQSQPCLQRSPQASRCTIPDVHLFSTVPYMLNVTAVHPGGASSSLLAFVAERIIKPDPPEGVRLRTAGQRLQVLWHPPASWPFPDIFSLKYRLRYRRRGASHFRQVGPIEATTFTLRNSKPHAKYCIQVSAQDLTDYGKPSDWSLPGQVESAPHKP
T1 sequence (Q8K3I6 29-234): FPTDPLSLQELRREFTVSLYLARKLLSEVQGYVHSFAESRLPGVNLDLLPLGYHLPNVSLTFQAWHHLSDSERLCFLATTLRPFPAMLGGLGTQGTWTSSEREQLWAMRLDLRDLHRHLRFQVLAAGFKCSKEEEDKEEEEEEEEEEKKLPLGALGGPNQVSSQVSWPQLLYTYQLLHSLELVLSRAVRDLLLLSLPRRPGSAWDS
Description: (§1) Whole mouse spleens were harvested from C57 B1/6 mice and washed two times with 1×PBS before being plated out at 2×10^5 cells/well in assay media (RPMI 1640 plus 10% fetal bovine serum) in 96-well, round-bottom tissue culture plates. Total human PBMC (peripheral blood mononuclear cells) were thawed from a frozen vial collected from a leukapherisis donation and washed two times with 1×PBS before being plated out at 10^6 cells/well in assay media in 96-well, round-bottom tissue culture plates. […] Following pre-incubation, treatments were added to the plates containing the cells and incubated together at 37° C. for 15 minutes.
(§2) Following incubation, cells were washed with ice-cold wash buffer (BIO-PLEX Cell Lysis Kit, BIO-RAD Laboratories, Hercules, Calif.) and put on ice to stop the reaction according to manufacturer's instructions. […]
(§3) Capture beads (BIO-PLEX Phospho-Stat3 Assay, BIO-RAD Laboratories) were combined with 50 μL of 1:1 diluted lysates and added to a 96-well filter plate according to manufacture's instructions (BIO-PLEX Phosphoprotein Detection Kit, BIO-RAD Laboratories). […] After the final wash, beads were resuspended in 125 μL/well of bead suspension buffer, shaken for 30 seconds, and read on an array reader (BIO-PLEX, BIO-RAD Laboratories) according to the manufacture's instructions. Data were analyzed using analytical softward (BIO-PLEX MANAGER 3.0, BIO-RAD Laboratories). […]

[2] = target: T2, huIL-27 (Homo sapiens, UniProt Q14213+Q8NEV9); assay: Phospho-STAT3 neutralization assay, total human PBMCs, huIL-27; assay type: cell-based; conditions: Total Human PBMCs; ligand huIL-27 at EC90
T2 sequence (Q14213 21-229): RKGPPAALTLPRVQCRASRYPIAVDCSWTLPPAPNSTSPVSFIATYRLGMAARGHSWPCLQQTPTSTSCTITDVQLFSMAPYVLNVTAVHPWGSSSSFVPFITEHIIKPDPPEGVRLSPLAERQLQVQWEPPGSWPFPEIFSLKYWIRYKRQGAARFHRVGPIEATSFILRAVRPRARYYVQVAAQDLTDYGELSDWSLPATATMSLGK
T2 sequence (Q8NEV9 29-243): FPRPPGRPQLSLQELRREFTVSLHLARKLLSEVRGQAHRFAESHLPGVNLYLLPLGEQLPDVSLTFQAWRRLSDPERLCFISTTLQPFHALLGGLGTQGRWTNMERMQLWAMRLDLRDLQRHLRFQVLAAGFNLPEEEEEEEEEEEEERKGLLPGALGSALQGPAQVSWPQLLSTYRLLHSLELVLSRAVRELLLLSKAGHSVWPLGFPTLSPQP
Description: as §1, §2, §3

[3] = target: T1, muIL-27; assay: Phospho-STAT3 neutralization assay, mouse spleens, muIL-27; assay type: cell-based; conditions: ligand muIL-27 at EC90
Description: as §1, §2, §3

[4] = target: T2, huIL-27; assay: Phospho-STAT3 neutralization assay, mouse spleens, huIL-27; assay type: cell-based; conditions: Mouse Spleens; ligand huIL-27 at EC90
Description: as §1, §2, §3

[5] = target: T3, mouse ligand (single-chain IL27) (Mus musculus, UniProt O35228+Q8K3I6); assay: SPR kinetics of soluble receptors with mouse IL27 ligand; conditions: binding with mouse ligand; gp130 not included
T3 construct: amino-terminal peptide tag (FLAG in lot A1426F) (N)
T3 sequence (O35228+Q8K3I6 with tags, fused parts or gaps): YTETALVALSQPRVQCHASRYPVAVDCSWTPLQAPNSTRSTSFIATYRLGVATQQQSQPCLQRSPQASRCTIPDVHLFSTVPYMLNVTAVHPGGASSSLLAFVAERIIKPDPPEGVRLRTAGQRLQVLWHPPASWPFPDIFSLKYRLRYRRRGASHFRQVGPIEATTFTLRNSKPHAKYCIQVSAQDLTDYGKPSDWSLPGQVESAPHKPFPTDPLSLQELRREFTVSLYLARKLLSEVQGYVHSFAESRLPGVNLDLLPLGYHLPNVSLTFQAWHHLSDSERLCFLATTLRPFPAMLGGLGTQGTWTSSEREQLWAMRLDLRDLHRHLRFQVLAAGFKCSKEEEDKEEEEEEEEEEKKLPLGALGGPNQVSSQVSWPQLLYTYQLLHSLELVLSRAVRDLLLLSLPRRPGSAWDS
Protocol: Kinetic rate and affinity constant values for the mouse (IL27RAm(mFc1), Example 3) and human (IL27RA-Fc5, Example 4) soluble receptors were obtained by surface plasmon resonance (SPR) using an automated instrument (BIACORE 3000; Biacore International AB, Uppsala, Sweden). The mouse soluble receptor was tested against mouse ligand (lot A1418F), and the human soluble receptor was tested against both mouse (A1426F) and human (A1534F) ligands. For determination of the kinetic rate constants for the receptor-ligand interactions, the gp130 molecule was not included as part of the receptor complex.
The IL27 ligands used in this study were single-chain molecules comprising EBI3 connected by its C-terminus to the N-terminus of IL-27 p28 via a polypeptide linker. Each of the ligands included an amino-terminal peptide tag.
For the mouse IL27RA study, the soluble receptor was captured onto the chip surface by an isotype-specific anti-mouse Fc antibody (obtained from Jackson ImmunoResearch Laboratories, Inc., West Grove, Pa.) covalently immobilized to the chip (BIACORE CM5 chip) using the standard amine coupling protocol specified by the instrument manufacturer. […]
All data were assessed using software provided with the instrument (BIACORE Evaluation software v. 3.2). […]

[6] = target: T4, mouse IL-27 (Mus musculus, UniProt O35228+Q8K3I6); assay: IL-27 inhibition of IL-2 production neutralized by IL-27RA Fc; assay type: cell-based
T4 sequence (O35228+Q8K3I6 with tags, fused parts or gaps): T3 sequence (O35228+Q8K3I6 with tags, fused parts or gaps)
Protocol: For testing of the soluble receptor, single-chain mouse IL-27 (10 ng/ml) was preincubated for 30 minutes at 37 degrees C. with either IL27RAm(mFc1) (10.0 and 5.0 .micro.g/ml), IL27RA-Fc5, mouse Fc1 protein (10.0 and 5.0 .micro.g/ml), human Fc5 protein (10.0 and 5.0 .micro.g/ml), or no recombinant protein in wells of the anti-CD3 coated plates. 4×10^5 CD4^+ CD62L high cells were added to the wells. Duplicate plates were set up for all experimental conditions. The plates were then cultured at 37 degrees for up to 72 hours. Cell supernatants were collected from one set of plates at 48 hours and from the duplicate set of plates at 72 hours. The supernatants were stored frozen at −80° C.

[7] = Pharmacokinetics of soluble receptors in female C57B1/6 mice; assay type: in vivo, mouse; conditions: for clearance from the circulation, comparison in words: mouse Fc1 fusion versus human Fc5 fusion
Protocol: Studies were performed to evaluate the pharmacokinetics of the mouse (IL-27RAm(mFc1)) and human (IL-27RA-Fc5) soluble receptors in female C57B1/6 mice.
Serum was generated from each sample and analyzed by a qualified enzyme-linked immunosorbant assay (ELISA). The resulting mean serum concentration versus time profiles were then subjected to noncompartmental pharmacokinetic analyses. The following pharmacokinetic parameters were calculated: C0 and Cmax (extrapolated concentration at time zero and maximum serum concentration, respectively), Tmax (time to achieve maximum concentration), t1/2 λz (terminal half-life), AUC0-t (area under the concentration versus time curve from time zero to the last measurable time point), AUCINF (area under the concentration versus time curve extrapolated to infinity), Cl or Cl/F (clearance or clearance divided by bioavailable fraction, respectively), VSS or VZ/F (steady state volume of distribution or volume of distribution divided by the bioavailable fraction, respectively), and F (bioavailable fraction).

IC50 [1]: 4.83 nM
IC50 [2]: 1370 nM
IC50 [3]: 0.18 nM
IC50 [4]: 9.3 nM
ka [5]: 1e+07 M⁻¹ s⁻¹
kd [5]: 0.0012 s⁻¹
IL-2 concentration ([6]; 48 hr, protein conc. 5 (µg/ml; Fc controls in molar equiv.) + IL-27 10 ng/ml): 4021.15 pg/mL
IL-2 concentration ([6]; 48 hr, protein conc. 10 (µg/ml; Fc controls in molar equiv.) + IL-27 10 ng/ml, listed as mIL-27RA): 5215.59 pg/mL and 4922.26 pg/mL
IL-2 concentration ([6]; 72 hr, protein conc. 5 (µg/ml; Fc controls in molar equiv.) + IL-27 10 ng/ml): 5744.95 pg/mL
IL-2 concentration ([6]; 72 hr, protein conc. 10 (µg/ml; Fc controls in molar equiv.) + IL-27 10 ng/ml, listed as mIL-27RA): 6704.62 pg/mL and 12186.7 pg/mL
inhibition (partial block) of the ability of mouse IL-27 to inhibit IL-2 production ([6]; naïve CD4 T cells): ~50%
B1: IL-27RAm(mFc1): fusion protein comprising the extracellular domain of mouse IL27RA and a wild type BALB/c mouse gamma2a constant region Fc tag (protein)
chain: TRPHGSPGPLQCYSVGPLGILNCSWEPLGDLETPPVLYHQSQKYHPNRVWEVKVPSKQSWVTIPREQFTMADKLLIWGTQKGRPLWSSVSVNLETQMKPDTPQIFSQVDISEEATLEATVQWAPPVWPPQKVLICQFRYKECQAETWTRLEPQLKTDGLTPVEMQNLEPGTCYQVSGRCQVENGYPWGEWSSPLSFQTPFLDPEDVWVSGTVCETSGKRAALLVWKDPRPCVQVTYTVWFGAGDITTTQEEVPCCKSPVPAWMEWAVVSPGNSTSWVPPTNLSLVCLAPESAPCDVGVSSADGSPGIKVTWKQGTRKPLEYVVDWAQDGDSLDKLNWTRLPPGNLSTLLPGEFKGGVPYRITVTAVYSGGLAAAPSVWGFREELVPLAGPAVWRLPDDPPGTPVVAWGEVPRHQLRGQATHYTFCIQSRGLSTVCRNVSSQTQTATLPNLHLGSFKLWVTVSTVAGQGPPGPNLSLHLPDNRIRWK
AUC0-24 ([7]; IP, 100 μg): 98.2 µg·h/mL
AUCINF ([7]; IP, 100 μg): 102 µg·h/mL
Cl/F ([7]; IP, 100 μg): 0.983 mL/h
Tmax ([7]; IP, 100 μg): 1 h
t1/2 λz ([7]; IP, 100 μg): 5.17 h
Cmax ([7]; IP, 100 μg, serum): 13200 ng/mL
AUC0-24 ([7]; IV, 100 μg): 157 µg·h/mL
AUCINF ([7]; IV, 100 μg): 162 µg·h/mL
Cl ([7]; IV, 100 μg): 0.618 mL/h
Vss ([7]; IV, 100 μg): 3.05 mL
t1/2 λz ([7]; IV, 100 μg): 5.25 h
Co ([7]; IV, 100 μg, serum): 36.2 µg/mL
AUC0-24 ([7]; SC, 100 μg): 56.5 µg·h/mL
Tmax ([7]; SC, 100 μg): 3 h
Cmax ([7]; SC, 100 μg, serum): 7950 ng/mL
clearance from the circulation, comparison in words [7]: more rapid clearance
clearance from the circulation, comparison in words ([7]; listed as Zcytor1 fragment polypeptide joined to a wild-type murine immunoglobulin gamma2a): rapidly cleared from the circulation
